Assay results from the RNAGym collection of RNA variant scans (doi:10.1073/pnas.2313332121).
Variants at the floor of the assay were thinned out.

B1: TPR 5TU (parent)
chain: GGAUCUUCUCGAUCUAACAAAAAAGACAAAUCUGCCACAAAGCUUGAGAGCAUCUUCGGAUGCAGAGGCGGCAGCCUUCGGUGGCGCGAUAGCGCCAACGUUCUCAACUAUGACACGCAAAACGCGUGCUCCGUUGAAUGGAGUUUAUCAUG

Variants of: B1
Assay: polymerase ribozyme fitness, log enrichment relative to wild type (log ratio); higher = more active; in vitro selection for triplet polymerase activity
How it was run: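 Fitness measures genotype enrichment against wild-type enrichment on a logarithmic scale, with inverse-variance-weighted averaging of replicates. The logarithm is base 2, and genotypes were kept only with ≥10 input reads and ≥1 read per output in Illumina sequencing. The sequenced libraries came from one triplicate in vitro selection round, including frozen incubation at −7 °C, of PCR-built, transcribed mutant libraries of each subunit of a heterodimeric triplet polymerase ribozyme.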

Variant	polymerase ribozyme fitness (log ratio)
C57A C76U	0.264
C57A A60C C85A	-3.08
U56A G80C G92A	≤ -4.2
U56A G83C C87U A89C C108U U144C	≤ -4.2
U55G U90G A97G U135G	≤ -4.2
U56A U104G A115C A142C	≤ -4.2
U56A G58U A115G	-0.802
U56A G65A G94C A150U	-1.57
U55G U145A	-0.604
C57A A60C	-1.35
U56G C87A C103U C114U C125U	≤ -4.2
C57A G58A C79U G88U	≤ -4.2
U56A C76U	0.105
U56A G88U	-3.06
U56A G88C	-4.12
U55G G84U	-0.827
U56A G84U A89C A142U	-3.24
U56A A91G C95U C105G A120G	-3.49
U56G A60G C99U U102A	-2.07
U56A C85U A121U C123G G124A U134A	-2.61
C57A G70U C96U	-2.27
C57A C114U	-1.45
C57A U90A A91U A138U	≤ -4.2
U56A C72G	-3.76

Variant	polymerase ribozyme fitness (log ratio)
U56A C79U C118G C132A	-4.05
U56C C76A A122G	-0.262
U56A G92A	-2.28
U56A G92C	-1.7
C57A C85G	-1.75
C57A C85A	-1.28
C57A C85U	-0.0999
U56A C57G C87A A119G G126A	≤ -4.2
U56G C85G	-2.54
U56C U109A U127C	-3.65
C57A U78G A97G G117A A122G	≤ -4.2
C57A G84U	-1.29
C57A A60G U101A U109A A113U	-3.65
U56G U82A A89G C95U G133C	-3.49
U56A U90C U144G	-3.91
U56A U130A A147C	-3.18
U56A G59A A113C G152U	≤ -4.2
C57A G92U	-0.638
U56C C132U	-1.47
U56G C114U	-1.85
U56A U61A C76G G84A C103G	≤ -4.2
U55G G84U A98C U151C	≤ -4.2
C57A A64C C85A C95U U130A A147U	≤ -4.2
U56A G58C C85U	-0.365

Variant	polymerase ribozyme fitness (log ratio)
U56C C87U A89G U101G	-2.81
C57A G86U C123U C125U	-0.745
U56A C57U	0.273
C57A G136A	0.714
U56A C96U A138U	-4.06
C57A G88U A120C G124A C149A	≤ -4.2
C57A C76U C85U G92C G126C	-2.15
U56G C93U	-3.02
C57A A113C A119U	-1.37
U56C G81U G92U C108G	≤ -4.2
C57A U82G G84U C95A	-0.701
U56C C75A G88C C99G	≤ -4.2
C57A G59C U146C U148A C149U	-3.99
U56C C108U	-4.01
U56A U101A	-0.244
C57A U82A A121U G133C	-0.916
C57G A89U A98U	-1.18
U56A A60G C125G	-0.563
U56A G74C	-4.17
U56A A115C	-0.798
U56A C85G C93G A107U U111G	≤ -4.2
U56A C93U C116U	-1.11
U56A G70C U78A U82A C131A	≤ -4.2
C57A A89C G94U A142G	-3.19

Variant	polymerase ribozyme fitness (log ratio)
C57A U104G A120U	-0.824
U56A G58A A89C C95G A122C G124C G141C	-1.54
U56A G80U C99A A122C	-1.16
U56G G71C C85U C116A	≤ -4.2
U56A A89U	-0.431
U55G G92U U139G U146G	-1.4
U56A C96U C116U G143A	-3.36
U56A C57G A66U G84A A98G C103A C125A	≤ -4.2
U56A C75G C93A A98G A106C G141A	≤ -4.2
U56A C125U A142C	-3.74
U56A C99U	-0.614
U56A G59C U144G	2.23
U56C G143U	-2.95
U56A G88U C114A	≤ -4.2
U56C G62U C87U	-0.567
U56G C116G	-0.0028
C57A C85U A106U C125G G136U U146G	-3.77
U56C C87U	-1.06
U56A U102G	-2.4
U56A C93A A98U A107G C129U	≤ -4.2
U56A U134A G143C	-4.04
U55G U82A U148C	-2.51
U56G A73G C87A G94U C118U	≤ -4.2
C57A G124U	-0.787

Variant	polymerase ribozyme fitness (log ratio)
U56A C57A C85U C87U	-0.523
U56A C125G	-1.56
U56G G70U C85U U151A	≤ -4.2
U56G C85A C95A	-1.74
C57A U102G	-1.73
U56A A89G C99A	-1.89
U56A G84A U127G	-3.06
U56A G58A C76U C123U C125G G143A	0.457
U56A C149U	-0.627
U56A G70A C85U A97G G133C	≤ -4.2
U56A U127A A138C A142G	-3.48
U56A U82G	0.243
U55G G143C	-2.79
U55G G143A	-0.655
U56A A73U C79G G88A	≤ -4.2
U56A G81A C103G A121G A122U	-1.56
U56A C57U U61A C75A G88U A120U U139A G143C	≤ -4.2
U56A A60C G92U	-1.73
U55G G86U	-0.476
U56A A97G	-0.89
U56A A97U	-1.47
C57G A60C	-2.4
U56A G84A	-1.06
U56A G83C G100U	≤ -4.2

Variant	polymerase ribozyme fitness (log ratio)
C57A G86A U146G	-1.4
U56A G58U C69U C95A C96A C118U	-2.19
U56A G59A C96U	0.392
U56A G94U C95A G143U	-3.39
C57A C69G A91U A119G G128A G140C U145G	≤ -4.2
U56A G88U U104C G124U	≤ -4.2
U56A C79U G83A	≤ -4.2
C57A G84U A89U G92U C118U U151A	≤ -4.2
U56A G58C C93A G124A	-2.36
U56A C57A G84A	-0.56
C57A C96U G124A A150C	-3.99
U56A G58A C87G G133U	≤ -4.2
C57A A150U	1.72
U56A G83U C93G	≤ -4.2
U56A A150C	-3.35
U56G A150C	-3.51
U56A C69U C129U	-0.94
U56G G68C C85A C114A	≤ -4.2
U55G G86A U134A	-3.62
U56A C57U G83A	0.0377
U56A G58U A97C C99A	-2.52
C57A	-0.00233
C57G	-0.448
U55G U56A U82C	-1.09

Variant	polymerase ribozyme fitness (log ratio)
U56A C103A A110G U144G	-3.91
U56A A113G	-1.32
C57A C87G	-3.18
C57A C87U	-1.52
U56A C95U C99U C125G	-2.57
U55G G133U	-4.16
U55G G83C	-0.921
U55G G83A	-0.31
U55G G83U	-0.389
U56A C87A C105G G128C	≤ -4.2
U56A U61A C96U U101A	-1.95
U56G C108A	≤ -4.2
U56C G67U A91C A97U C123A	≤ -4.2
C57A C105U	1.29
U56A G67C C93U C103A U130A U148C	≤ -4.2
C57A G59C G84U A107G A115U A137G C149U	≤ -4.2
U56G G88U G92U C96U C125A	-3.87
U56A A64U	-4.19
C57A G70A G86U C96A C99U U134C U146C	≤ -4.2
U56A C76A A119U A121C G126U	-1.11
U56C U109A	-1.87
U55G U127C	-1.36
U55G U127A	-3.34
